By IC50 is commonly meant the midpoint of a concentration-inhibition curve. The low end stands for greater potency in that assay, the high end for weaker potency in that assay.

A value given as a limit tells only on which side of the number the result lay.

The data set has as its target FGF2 (Homo sapiens) (UniProt P09038). As to the kind of experiment: cell_activity. Particulars: 5' C6; 3' idT; negative control; HUVEC proliferation, FGF2 0.58 nM.

Sequence of FGF2 (Homo sapiens) (P09038 135-288): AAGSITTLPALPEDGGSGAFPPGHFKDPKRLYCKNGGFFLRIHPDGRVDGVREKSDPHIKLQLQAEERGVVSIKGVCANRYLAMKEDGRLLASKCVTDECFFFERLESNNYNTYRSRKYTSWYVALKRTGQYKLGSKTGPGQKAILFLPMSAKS

Turning to “negative control RNA (Macugen sequence without PEG)”, the IC50 is > 400 nM.

The values above are taken from patent publication US20170157165.
